Measurements from US20170129961A1 (Amgen, published 2017).

T1: human CD70 (human, UniProt P32970 1-193)
T1 construct: also called hu CD70; CD27L
T1 sequence: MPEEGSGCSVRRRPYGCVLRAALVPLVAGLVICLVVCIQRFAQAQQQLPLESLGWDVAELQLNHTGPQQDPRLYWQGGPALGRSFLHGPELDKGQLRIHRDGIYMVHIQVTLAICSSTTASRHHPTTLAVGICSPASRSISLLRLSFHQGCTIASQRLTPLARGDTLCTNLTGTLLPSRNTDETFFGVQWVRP

T2: full-length mouse CD70 with C-terminal V5 tag (mouse, UniProt O55237 1-195)
T2 construct: On transfected CHO cells; also called murine CD70
T2 sequence: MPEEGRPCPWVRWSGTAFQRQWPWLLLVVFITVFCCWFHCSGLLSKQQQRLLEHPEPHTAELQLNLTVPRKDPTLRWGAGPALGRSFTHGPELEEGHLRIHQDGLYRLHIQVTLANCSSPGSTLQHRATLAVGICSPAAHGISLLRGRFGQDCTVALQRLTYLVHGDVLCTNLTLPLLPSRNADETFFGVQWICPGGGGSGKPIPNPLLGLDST

T3: full length human CD70 with C-terminal V5 tag (human, UniProt P32970 1-193)
T3 construct: On transfected CHO cells; also called huCD70-V5
T3 sequence: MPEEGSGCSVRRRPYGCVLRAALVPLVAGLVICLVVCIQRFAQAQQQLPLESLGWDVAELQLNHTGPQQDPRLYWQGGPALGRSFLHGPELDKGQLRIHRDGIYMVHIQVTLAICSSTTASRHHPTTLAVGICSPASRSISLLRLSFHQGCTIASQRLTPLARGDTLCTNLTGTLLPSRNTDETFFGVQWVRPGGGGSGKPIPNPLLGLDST


How the values were obtained:
Test in all cases: FACS on CHO cells, periplasmic scFv
human CD70 = biological target: T1, human CD70
Protocol: (§1) All antibodies were diluted in PBS/1.5% FCS. As negative control, cells were incubated with PBS/2% FCS instead of the periplasmic extract. The samples were measured by flow cytometry.

[1] = biological target: T2, full-length mouse CD70 with C-terminal …
Protocol: as §1

[2] = biological target: T3, full length human CD70 with C-terminal …
Protocol: as §1

Row | Binder | binding result (human CD70) | binding result [1] | binding result [2]
1 | CD70-64 (scFv, As m32) scFv: EVQLLESGGGLVQPGGSLRLSCAASGFTFSVYAMSWVRQAPGKCLEWVSTISDSGGSTFYADSVKGRFTISRDNSKNTLYLQMNRLRAEDTAVYYCARHDYSNYAYFDYWGQGTLVTVSSGGGGSGGGGSGGGGSEIVLTQSPGTLSLSPGERATLSCRASQSVRSSYLAWYQQKPGQAPRLLIYGASSRATGIPDRFSGSGSGTDFTLTISRLEPEDFAVYYCQQYGDLPFTFGCGTKVEIK | binds | no binding | 
2 | CD70-56 (scFv, As m32) scFv: QVQLVESGGGVVQPGRSLRLSCAASGFTFSSYGMHWVRQAPGKGLEWVAVISYDGSNKYYADSVKGRFTISRDNSKNTLYLQMNSLRAEDTAVYYCARGRYYGSGSYNYGMDVWGQGTTVTVSSGGGGSGGGGSGGGGSDIQMTQSPSSLSASVGDRVTITCRASQSIFDYLNWYQQKPGKAPKLLIYAASSLQSGVPSRFSGSGFGTDFTLTISSLQPEDFATYYCQQSYSTPLTFGGGTKLEIK | binds | no binding | no binding
3 | CD70-71 (scFv, As m32) scFv: QVQLVESGGGVVQPGRSLRLSCAASGFTFSSYGMHWVRQAPGKCLEWVAVISYDGSNKYYADSVKGRFTISRDNSKNTLYLQMNSLRAEDTAVYYCARGRYYGSGSYNYGMDVWGQGTTVTVSSGGGGSGGGGSGGGGSDIQMTQSPSSLSASVGDRVTITCRASQSIFDYLNWYQQKPGKAPKLLIYAASSLQSGVPSRFSGSGFGTDFTLTISSLQPEDFATYYCQQSYSTPLTFGCGTKLEIK | binds | no binding | no binding
4 | CD70-58 (scFv) scFv: QVQLQESGPGLVKPSQTLSLTCTVSGGSISSSSYYWGWIRQPPGKGLEWIGSIYHSGGTYFNPSLKSRVTISVDTSKNQFSLKLSSVTAADTAVYYCARHYEILTGYYPDVFDIWGQGTMVTVSSGGGGSGGGGSGGGGSDIQMTQSPSSLSASVGDRVTITCRASQSISSYLNWYQQKPGKAPKLLIYAASNLQSGVSSRFSGSGSGTDFTLTISSLQPEDFATYYCQQSFSSPRTFGQGTKVEIK | binds | no binding | 
5 | CD70-59 (scFv) scFv: QVQLQQWGAGLLKPSETLSLTCAVYDGSVSGFYWSWIRQPPGKGLEWIGEIDHSGSTNYNPSLKSRVTISVDTSKNQFSLKLSSVTAADSAVYYCARNGYSGYLFDYWGQGTLVTVSSGGGGSGGGGSGGGGSDIQMTQSPSSLSASVGDRVTITCRASQIISSYLNWYQQKPGKAPKVLIYGASSMQSGVPSRFSGSGYGTDFTLTISSLQPEDFATYYCQQSYSIPRTFGQGTKLEIK | binds | no binding | 
6 | CD70-63 (scFv) scFv: EVQLVESGGGLVKPGGSLRLSCAASGITFSTYTMNWVRQAPGKGLEWVSSISSSSGYIYYADSVKGRFTISRDNAKNSLYLQMNSLRAEDTAVYYCARGDYSNYLYFDLWGRGTLVTVSSGGGGSGGGGSGGGGSEIVLTQSPGTLSLSPGERATLSCRASQSFRSSYLAWYQQKPGQAPRLLIHGASSRATGIPDRFSGSGSGTDFTLTISRLEPEDFAVYYCQLYGSLPITFGQGTRLEIK | binds | no binding | 
7 | CD70-52 (scFv, As m32) scFv: QVQLQESGPGLVKPSETLSLTCTVSGGSVSTDGYYWSWIRQPPGKGLEWIGYIYYSGSTNYNPSLKSRVTISVDTSKNQFSLKLSSVTAADTAVYYCARGIGLGFEYWGQGTLVTVSSGGGGSGGGGSGGGGSSYVLTQLSSVSVAPGQTARITCGGNNIGSKSVHWYQQKPGQAPVLVVYDDSDRPSGIPERFSGSNSGNTATLTISRVEAGDEADYYCQVWDRSSDQDVVFGGGTKLTVL | binds | no binding | 
8 | CD70-69 (scFv, As m32) scFv: QVQLQESGPGLVKPSETLSLTCTVSGGSVSTDGYYWSWIRQPPGKCLEWIGYIYYSGSTNYNPSLKSRVTISVDTSKNQFSLKLISVTAADTAVYYCARGIGLGFEYWGQGTLVTVSSGGGGSGGGGSGGGGSSYVLTQLSSVSVAPGQTARITCGGNNIGSKSVHWYQQKPGQAPVLVVYDDSDRPSGIPERFSGSNSGNTATLTISRVEAGDEADYYCQVWDRSSDQDVVFGCGTKLTVL | binds | no binding | 
9 | CD70-51 (scFv, As m32) scFv: QVQLQESGPGLVKPSETLSLTCTVSGGSVSTDGYYWSWIRQPPGKGLEWIGYIYYSGSTNYNPSLKSRVTISVDTSKNQFSLKLSSVTAADTAVYYCARGIGLGFEYWGQGTLVTVSSGGGGSGGGGSGGGGSSYVLTQLTSVSVAPGQTARITCGGNNIGSKSVHWYQQKPGQAPVLVVYDDSDRPSGIPERFSGSNSGNTATLTISRVEAGDEADFYCQVWDRSSDQDVVFGGGTKLTVL | binds | no binding | 
10 | CD70-57 (scFv) scFv: QVQLVESGGGVVQPGRSLRLSCAASGFTFSSYGMHWVRQAPGKGLEWVAVIWYDGSSEYYADSVKGRFTISRDNSKNTLYLQMNSLRAEDTAVYYCARDNSYNYYGMDVWGQGTTVTVSSGGGGSGGGGSGGGGSQSVLTQPPSVSGAPGQRVTISCTGSSSNIGAAYDVHWYQQFPGTAPKLLIYVNSHRPPGVPDRFSGSKSGTSASLAITGLQAEDEADYYCLSYDNSLSGSVFGGGTKLTVL | binds | no binding | 
11 | CD70-48 (scFv, As m32) scFv: EVQLLESGGGLVQPGGSLRLSCAASGFTFSSYAMSWVRQAPGKGLEWVSVISDSGGITDFADSVKGRFTISRDNSRNTLYLQMNSLRAEDTAVYFCARHDYSNYFFFDYWGQGTLVTVSSGGGGSGGGGSGGGGSDIQMTQSPSSLSASVGDRVTITCRASQGISNYLAWYQQKPGKVPKLLIYAASILQSGVPSKFSGSGSGTDFTLTISSLQPEDFAIYYCQQYFAYPITFGQGTRLEIK | binds | no binding | 
12 | CD70-68 (scFv, As m32) scFv: EVQLLESGGGLVQPGGSLRLSCAASGFTFSSYAMSWVRQAPGKCLEWVSVISDSGGITDFADSVKGRFTISRDNSRNTLYLQMNSLRAEDTAVYFCARHDYSNYFFFDYWGQGTLVTVSSGGGGSGGGGSGGGGSDIQMTQSPSSLSASVGDRVTITCRASQGISNYLAWYQQKPGKVPKLLIYAASILQSGVPSKFSGSGSGTDFTLTISSLQPEDFAIYYCQQYFAYPITFGCGTRLEIK | binds | no binding | 
13 | CD70-62 (scFv, As m32) scFv: EVQLVESGGGLVKPGGSLRLSCAASGFTFSSYSMNWVRQAPGKGLEWVSYISSSGGYIYYADSVKGRFTISRDNAKNSLYLQMNSLRAEDAAVYYCSRGDYSNYAYFDYWGQGTLVTVSSGGGGSGGGGSGGGGSDIQMTQSPSSLSASVGDRVTITCRASQGISNYLAWYQQKPGKVPKLLIYAASTLQSGVPSRFSGSGSGTDFTLTISSLQAEDVAVYYCQQYYSTPLTFGGGTKVEIK | binds | no binding | 
14 | CD70-73 (scFv, As m32) scFv: EVQLVESGGGLVKPGGSLRLSCAASGFTFSSYSMNWVRQAPGKCLEWVSYISSSGGYIYYADSVKGRFTISRDNAKNSLYLQMNSLRAEDAAVYYCSRGDYSNYAYFDYWGQGTLVTVSSGGGGSGGGGSGGGGSDIQMTQSPSSLSASVGDRVTITCRASQGISNYLAWYQQKPGKVPKLLIYAASTLQSGVPSRFSGSGSGTDFTLTISSLQAEDVAVYYCQQYYSTPLTFGCGTKVEIK | binds | no binding | 
